Article PMC10726570

Experiments:
[1] = biological target: human neonatal Fc receptor (human-FcRn) (human) (UniProt P55899); assay: SPR; format and conditions not told in the text (who was immobilised, pH, buffer); shown in Fig. S1B-C
[2] = biological target: monkey neonatal Fc receptor (monkey-FcRn) (monkey) (UniProt Q8SPV9); assay: as above
[3] = biological target: human neonatal Fc receptor (human-FcRn) (human) (UniProt P55899)

PAT101, recombinant human albumin (rHA)-conjugated Aspergillus flavus urate oxidase (from UniProt Q00511 1-302; P02768 25-609) (complex)
Kd [1]: 2.94 µM | Kd [2]: 6.85 µM | plasma half-life T1/2 (uricase activity) after a single i.v. dose in TG mice expressing human FcRn [3]: 95 h
